This assay addresses T1, mouse R1 protein (Mus musculus, UniProt P07742).
T1 construct: made in house; host or cells: E. coli BL21 (DE3)pLysS, pET3a
T1 sequence (P07742 1-792): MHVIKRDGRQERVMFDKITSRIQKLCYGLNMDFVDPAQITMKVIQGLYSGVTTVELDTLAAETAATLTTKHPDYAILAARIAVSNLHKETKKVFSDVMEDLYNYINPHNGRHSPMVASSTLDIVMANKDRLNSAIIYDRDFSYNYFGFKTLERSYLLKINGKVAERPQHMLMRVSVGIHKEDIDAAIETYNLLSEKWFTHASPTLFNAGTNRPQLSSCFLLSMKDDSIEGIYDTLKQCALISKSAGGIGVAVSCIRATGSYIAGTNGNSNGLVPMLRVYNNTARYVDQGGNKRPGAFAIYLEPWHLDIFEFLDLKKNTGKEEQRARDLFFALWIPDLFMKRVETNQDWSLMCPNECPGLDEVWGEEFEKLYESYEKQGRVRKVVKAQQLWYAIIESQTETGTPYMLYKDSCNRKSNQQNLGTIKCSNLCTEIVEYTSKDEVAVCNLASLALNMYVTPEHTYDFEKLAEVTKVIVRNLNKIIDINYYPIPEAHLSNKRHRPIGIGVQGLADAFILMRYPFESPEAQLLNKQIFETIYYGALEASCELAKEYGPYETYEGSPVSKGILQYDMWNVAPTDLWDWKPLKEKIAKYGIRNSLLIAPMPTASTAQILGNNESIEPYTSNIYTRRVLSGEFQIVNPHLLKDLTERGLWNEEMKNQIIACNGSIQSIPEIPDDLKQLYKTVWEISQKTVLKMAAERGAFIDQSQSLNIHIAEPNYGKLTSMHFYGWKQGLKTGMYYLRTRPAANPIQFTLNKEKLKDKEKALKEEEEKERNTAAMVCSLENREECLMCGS
The experiment in a line: BIAcore biosensor analysis, immobilized Sml1p and mouse R1 protein. In kind it is binding. As to conditions: not quantified. Here is the method: FIG. 14 Sensorgram showing the interaction between immobilized Sml1p and the mouse R1 protein. […] Curve 3 showes the response with mouse R1 protein alone at 0.1 mg/ml passed over immobilized Sml1p. Note that the injection time for this curve is prolonged from 6 min to 14 min.
BIAcore biosensor analysis. The interaction between Sml1p and either yeast Rnr1p or mouse R1 protein was studied by biosensor analysis using the BIAcore method (Biacore AB). The Sml1 protein was prepared in 10 mM sodium acetate, pH 5.2, at a concentration of 0.44 mg/ml; it was then immobilized on the dextran layer of the sensor chip as described previously for the mouse R2 protein (17). The ligand proteins were equilibrated with running buffer (10 mM Hepes-KOH, pH 7.4, 200 mM potassium acetate, 1 mM EDTA, 5 mM magnesium acetate and 0.05% Surfactant P20 (BIAcore). The interactions were studied at a constant temperature of 22° C. and a constant flow of 5 μl/min. Kinetics for the interaction of Sml1p with yeast Rnr1p was determined by allowing the immobilized Sml1p to interact with increasing concentrations of Rnr1p (18). The resonance unit (RU) is proportional to the mass, and 1 RU corresponds to a surface concentration of 1 pg of protein/mm^2 of the 100 nm thick dextran layer (19).
Kinetic studies of the interaction between the mouse RNR R1 protein and the Sml1 protein using a biosensor technique. […]

B1: Sml1p: 104 amino acid yeast protein encoded by YML058w (SML1) that binds Rnr1 and inhibits ribonucleotide reductase; recombinant, expressed in E. coli (protein)
chain: MQNSQDYFYAQNRCQQQQAPSTLRTVTMAEFRRVPLPPMAEVPMLSTQNSMGSSASASASSLEMWEKDLEERLNSIDHDMNNNKFGSGELKSMFNQGKVEEMDF
In the case of B1, the “binding to mouse R1 protein” value is listed as “high affinity”.

The values are drawn from patent US7125658B2, “Small protein that interacts with a ribonucleotide reductase subunit and uses thereof” (The Trustees of Columbia University in the City of New York, priority 1998, dated 2006).
